In US20060039913A1 (Janssen / Centocor, published 2006):
Values joined by “and” are separate entries in the source; they are usually repeats but may differ in a detail not shown here. Equal values may be shown once.

How the values were obtained:
[1] = target: chemokine receptor CCR2 on THP-1 cells (human) (UniProt P41597); experiment: radioligand saturation binding on THP-1 cells, one-site binding hyperbola fit; molar conversion with 150 kDa
[2] = target: chemokine receptor CCR2 on THP-1 cells (human) (UniProt P41597); experiment: radioligand saturation binding of 125I MCP-1 to THP-1 cells (CCR2), specific bound cpm, one site binding (hyperbola) fit
[3] = target: chemokine receptor CCR2 on THP-1 cells (human) (UniProt P41597); experiment: radioligand saturation binding on THP-1 cells, one-site binding hyperbola fit; mass concentration as fitted
human MCP-2 = target: T1, human MCP-2 (human, UniProt P80075 24-99); experiment: BIAcore, C775 captured on anti-Fc surface, single ligand concentration
T1 sequence (looked up): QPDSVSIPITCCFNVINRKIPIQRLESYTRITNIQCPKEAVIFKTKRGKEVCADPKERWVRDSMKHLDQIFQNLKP
Source text: (§1) Anti-MCP-1 monoclonal antibodies were captured onto a BIAcore CM5 sensor surface (Biacore International, Piscataway, N.J.). A solution containing a mixture of rabbit anti-human Fc specific polyclonal antibodies and rabbit anti-mouse Fc specific polyclonal antibodies was first immobilized onto the sensor surface. After the restabilization of the new baseline, the anti-MCP-1 mAb is passed over the surface.
(§2) Human MCP-1 purchased from R&D Systems (www.rndsystems.com) was reconstituted as proscribed by the vendor. Samples of varying concentrations were prepared using this stock solution. They were then passed over the surface of captured anti-MCP-1 mAb using KINJECT command at a flow rate of […]. Measurements are typically performed at 25° C. Sensor data was analyzed using the BLAevaluation software provided with the instrument.
(§3) Analysis is performed as described above, with the exception only a single concentration is used, typically, a high ligand concentration (100 nM). Chemokines selected for mAb specificity were human forms of MCP-1, MCP-2, Eotaxin-1, Eotaxin-2 (CCL24, MPIF-2, NP_{—}002982) and Eotaxin-3 (CCL26, GenBank Q9Y258). All chemokines were purchased from R&D Systems. Dextran-sulfate (1%) was added to the sample buffer in the final round of assays to reduce non-specific binding, particularly to eotaxin-3.

[4] = target: T2, human Eotaxin-2 (CCL24, MPIF-2) (human, UniProt O00175 27-104, limits assumed); experiment: as above
T2 sequence (looked up): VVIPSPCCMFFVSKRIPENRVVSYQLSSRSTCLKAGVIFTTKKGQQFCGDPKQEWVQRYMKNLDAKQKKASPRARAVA
Source text: as §1, §2, §3

human Eotaxin-3 (CCL26) = target: T3, human Eotaxin-3 (CCL26) (human, UniProt Q9Y258 24-94); experiment: as above
T3 sequence (looked up): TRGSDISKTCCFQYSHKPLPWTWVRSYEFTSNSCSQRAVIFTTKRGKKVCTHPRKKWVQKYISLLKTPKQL
Source text: as §1, §2, §3

[5] = target: T4, recombinant human MCP-1 (monocyte chemoattractant protein 1) (human, UniProt P13500 24-99); experiment: BIAcore, C775 captured on anti-Fc surface, MCP-1 in solution, 25 C
T4 construct: Bought recombinant protein (RDI-304 for the EIA; R&D Systems 279-MC for the other assays); also called rHuMCP-1; cold MCP-1
T4 sequence (P13500 24-99 limits assumed): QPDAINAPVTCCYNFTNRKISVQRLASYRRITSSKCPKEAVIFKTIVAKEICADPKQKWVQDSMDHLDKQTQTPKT
Source text: as §1, §2

[6] = target: T4, recombinant human MCP-1 (monocyte …); experiment: cell-based or functional assay
[7] = target: T4, recombinant human MCP-1 (monocyte …); experiment: BIAcore, ratio of binding constants, reference eotaxin
Procedure: as §1, §3
The data for binding of C775 to each of the ligand described was processed to give a binding constant, where measurable. There was no measurable binding of C775 to any of the other MCP-1 homologs or eotaxin homologs. The calculated binding constant of C775 to MCP-1 by this method was 1.0 nM and for eotaxin >5 uM, respectively, for a ligand concentration 100 nM. Therefore, the binding specificity of C775 for MCP-1 as compared to eotaxin is >5000 fold. […]

[8] = target: T5, 125I labeled human MCP-1 (NEX332, Perkin Elmer) (human, UniProt P13500 24-99, 125I label, residue not stated); experiment: inhibition of 125I MCP-1 (1 ng/ml) binding to CCR2 on THP-1 cells, filter plate radioligand assay
T5 construct: Bought radio-iodinated MCP-1; also called radiolabeled MCP-1
T5 sequence (P13500 24-99 limits assumed): as above
Procedure: Negative controls (no inhibition) or total binding was measured in 50 ul of assay buffer with no other additions. Nonspecific binding (background) was measured by adding 50 ul of MCP-1 at a final concentration of […]. Test wells received 50 ul of serial dilutions of mAb. Lastly, 50 ul of ¹²⁵I MCP-1 at a final concentration of 1 ng/ml was added to all wells resulting in a total assay volume of […].
To test the efficacy of anti-MCP-1 mabs, a concentration of 1 ng/ml ¹²⁵I MCP-1 was used. Cells were incubated with 1 ng/ml ¹²⁵I MCP-1 with or without serial dilutions of either the commercial Mab (positive control) or 6 different Mabs generated in Example 2. There is a dose-dependent inhibition of ¹²⁵I MCP-1 binding to the CCR2 receptor with the commercial Mab. A dose-dependent inhibition was also observed with five of the six Centocor-generated Mabs allowing the calculation of an IC50 concentration: C727, C728, C752, C753 and, C775.

Molecule: 125I labeled human MCP-1 (NEX332, Perkin Elmer) (from UniProt P13500 24-99) (ligand)
- Kd [1]: 1 nM
- BMAX [2]: 15700 cpm
- Kd [3]: 0.00896 mg/L

B1: murine anti-human MCP-1 monoclonal antibody C775 (antibody, mouse IgG1, V domains shown)
VH: QVQLKQSGAELVRPGASVKLSCKASGYTFTDYYINWVKQRPGQGLEWIARIYPGTGNTYYNENFKGKATLTAEKSSSTAYMQLSSLTSEDSAVYFCARSGSTVVGNYYGMDYWGQGTSVTVSS
VL: SIVMTQTPKFLLVSAGDRVSITCKASQSVSNDVAWYQQKPGQSPKLLIYYASNRYTGVPDRFTGSGYGTDFTFTISTVQAEDLAVYFCQQDYSSPWTFGGGTKLEIKR
notes: also called CNTO4874; CNTO 4874
- binding result (human MCP-2): no binding (tested: 100 nM ligand)
- binding result [4]: no binding (tested: 100 nM ligand)
- binding result (human Eotaxin-3 (CCL26)): no binding (tested: 100 nM ligand)
- Kd [5]: 1 nM
- IC50 (nM), Ca2+ mobilization in THP-1 cells with 300 ng/ml MCP-1 [6]: 53 nM
- IC50 (µg/ml), Ca2+ mobilization in THP-1 cells with 300 ng/ml MCP-1 [6]: 8.01 µg/mL
- binding specificity for MCP-1 as compared to eotaxin (fold) [7]: > 5000 fold
- IC50 [8]: 7.1 µg/mL and 47 nM
